The values that follow come from patent US20190004036.

The test system of data set [1] is T1, 5FAMcollagenPPT protease substrate.
T1 sequence: AGGPLGPPGPGGK

For data set [2], the target named is T2, 5FAMcollagenPPT protease substrate.
T2 chain: AGGPLGPPGPGGK

Where two headings read alike, the source gives them in different places.

For Neutral Protease, in data set [1], the Km, with 4.14 mM calcium (FRET cleavage assay) is 45.1 µM; the Km, without calcium (FRET cleavage assay) stood at 74.1 µM; the Vmax, with 4.14 mM calcium (FRET cleavage assay) was found to be 29.3 RFU/min/µg; the Vmax, without calcium (FRET cleavage assay) is 20 RFU/min/µg.

Take chymotrypsin: the “cleavage of substrate (FRET assay, Example 3, 0.3125-10 µg/mL enzyme, 50 µM substrate)” value in data set [1] is “the mammalian proteases trypsin, chymotrypsin, and elastase do not cleave the protease substrate”.

On to collagenase class I, for which, in data set [1], the Km (FRET cleavage assay, Example 3) was determined as 28.2 µM; the Km, with 4.14 mM calcium (FRET cleavage assay) came to 32.9 µM; the Km, without calcium (FRET cleavage assay) is 38.1 µM; the Vmax (FRET cleavage assay, Example 3) stood at 909 RFU/min/µg. Also, in data set [1], the Vmax, with 4.14 mM calcium (FRET cleavage assay) was determined as 1010 RFU/min/µg and the Vmax, without calcium (FRET cleavage assay) is 1700 RFU/min/µg.

With trypsin, the “cleavage of substrate (FRET assay, Example 3, 0.3125-10 µg/mL enzyme, 50 µM substrate)” value in data set [1] was “the mammalian proteases trypsin, chymotrypsin, and elastase do not cleave the protease substrate”.

B1: thermolysin (protein)
chain: ITGTSTVGVGRGVLGDQKNINTTYSTYYYLQDNTRGNGIFTYDAKYRTTLPGSLWADADNQFFASYDAPAVDAHYYAGVTYDYYKNVHNRLSYDGNNAAIRSSVHYSQGYNNAFWNGSQMVYGDGDGQTFIPLSGGIDVVAHELTHAVTDYTAGLIYQNESGAINEAISDIFGTLVEFYANKNPDWEIGEDVYTPGISGDSLRSMSDPAKYGDPDHYSKRYTGTQDNGGVHINSGIINKAAYLISQGGTHYGVSVVGIGRDKLGKIFYRALTQYLTPTSNFSQLRAAAVQSATDLYGSTSQEVASVKQAFDAVGVK
For the molecule B1, in data set [2], the Km (FRET cleavage assay, Example 3) turned out to be 34.6 µM; the Km, with 4.14 mM calcium (FRET cleavage assay) is 24.8 µM; the Km, without calcium (FRET cleavage assay) amounted to 30.4 µM; the Vmax (FRET cleavage assay, Example 3) amounted to 24.6 RFU/min/µg. Besides, in data set [2], the Vmax, with 4.14 mM calcium (FRET cleavage assay) came to 25.5 RFU/min/µg and the Vmax, without calcium (FRET cleavage assay) was 23.7 RFU/min/µg.

B2: collagenase class II (protein)
chain: VQNESKRYTVSYLKTLNYYDLVDLLVKTEIENLPDLFQYSSDAKEFYGNKTRMSFIMDEIGRRAPQYTEIDHKGIPTLVEVVRAGFYLGFHNKELNEINKRSFKERVIPSILAIQKNPNFKLGTEVQDKIVSATGLLAGNETAPPEVVNNFTPILQDCIKNIDRYALDDLKSKALFNVLAAPTYDITEYLRATKEKPENTPWYGKIDGFINELKKLALYGKINDNNSWIIDNGIYHIAPLGKLHSNNKIGIETLTEVMKVYPYLSMQHLQSADQIKRHYDSKDAEGNKIPLDKFKKEGKEKYCPKTYTFDDGKVIIKAGARVEEEKVKRLYWASKEVNSQFFRVYGIDKPLEEGNPDDILTMVIYNSPEEYKLNSVLYGYDTNNGGMYIEPEGTFFTYEREAQESTYTLEELFRHEYTHYLQGRYAVPGQWGRTKLYDNDRLTWYEEGGAELFAGSTRTSGILPRKSIVSNIHNTTRNNRYKLSDTVHSKYGASFEFYNYACMFMDYMYNKDMGILNKLNDLAKNNDVDGYDNYIRDLSSNYALNDKYQDHMQERIDNYENLTVPFVADDYLVRHAYKNPNEIYSEISEVAKLKDAKSEVKKSQYFSTFTLRGSYTGGASKGKLEDQKAMNKFIDDSLKKLDTYSWSGYKTLTAYFTNYKVDSSNRVTYDVVFHGYLPNEGDSKNSLPYGKINGTYKGTEKEKIKFSSEGSFDPDGKIVSYEWDFGDGNKSNEENPEHSYDKVGTYTVKLKVTDDKGESSVSTTTAEIKDLSENKLPVIYMHVPKSGALNQKVVFYGKGTYDPDGSIAGYQWDFGDGSDFSSEQNPSHVYTKKGEYTVTLRVMDSSGQMSEKTMKIKITDPVYPIGTEKEPNNSKETASGPIVPGIPVSGTIENTSDQDYFYFDVITPGEVKIDINKLGYGGATWVVYDENNNAVSYATDDGQNLSGKFKADKPGRYYIHLYMFNGSYMPYRINIEGSVGR
For the molecule B2, in data set [2], the Km (FRET cleavage assay, Example 3) was found to be 24.5 µM; the Km, without calcium (FRET cleavage assay) turned out to be 24.1 µM; the Vmax (FRET cleavage assay, Example 3) is 5000 RFU/min/µg; the Vmax, without calcium (FRET cleavage assay) stood at 3240 RFU/min/µg.
